# Several values for one entry are separate records, joined by “and”; a condition that tells them apart may be missing. Equal entries are not always repeated.
# What was measured:
# [1] = molecular target: T1, CD138 expressed on the cell surface (OPM-2, MOLP-8 cells) (human, UniProt P18827 23-310); assay: cell-based or functional assay
# T1 sequence (looked up): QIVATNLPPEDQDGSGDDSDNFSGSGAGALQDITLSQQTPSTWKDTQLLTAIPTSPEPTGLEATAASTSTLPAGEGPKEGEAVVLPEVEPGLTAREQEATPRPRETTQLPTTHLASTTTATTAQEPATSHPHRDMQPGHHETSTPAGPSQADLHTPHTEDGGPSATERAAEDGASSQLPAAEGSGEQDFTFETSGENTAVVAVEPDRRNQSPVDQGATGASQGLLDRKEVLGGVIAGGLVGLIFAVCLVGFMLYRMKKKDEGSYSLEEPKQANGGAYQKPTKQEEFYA
# [2] = molecular target: T1, CD138 expressed on the cell surface …; assay: FACS on CD138+ OPM-2 cells, fluorescence-labeled secondary antibody, mean fluorescence against concentration
# Description: The mean fluorescence measured in these experiments was plotted against the antibody concentration.
# In FIG. 6, the mean fluorescences as measure for the amount of cell bound antibody is plotted against different antibody or conjugate concentrations.
# [3] = molecular target: T2, Soluble CD138 antigen from U-266 cell culture supernatant, biotinylated (human, UniProt P18827 23-245, limits assumed, biotinylated on primary amino groups with Sulfo-NHS-LC-Biotin); assay: SPR (BIACORE C), biotinylated soluble CD138 on streptavidin chip, conjugate as analyte at 3.13-100 nM
# T2 construct: This is the soluble form in the supernatant of the human MM cell line U-266; also called bCD138; biotinylated CD138
# T2 sequence (looked up): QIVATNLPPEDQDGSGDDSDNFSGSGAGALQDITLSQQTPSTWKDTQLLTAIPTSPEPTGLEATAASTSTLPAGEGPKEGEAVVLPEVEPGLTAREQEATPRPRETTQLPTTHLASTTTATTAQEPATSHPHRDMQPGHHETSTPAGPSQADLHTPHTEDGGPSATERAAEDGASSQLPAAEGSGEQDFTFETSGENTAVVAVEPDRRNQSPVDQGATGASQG
# Protocol: (§1) The unbound biotinylation reagent was removed using protein desalting columns. Immobilization of bCD138 The sensorchip (SENSOR CHIP SA, BIACORE AB) used in the BIACORE assay is designed to bind biotinylated molecules for interaction analysis in BIACORE systems. The surface consists of a carboxymethylated dextran matrix pre-immobilized with streptavidin and ready for high-affinity capture of biotinylated ligands. Immobilization of bCD138 was performed on SENSOR CHIP SA using a flow rate of 10 μL/min by manual injection. The chip surface was conditioned with three consecutive 1-minute injections of 1 M NaCl in 50 mM NaOH.
# (§2) The software of BIACORE C uses pre-defined masks, so called “Wizards” for different experiments where only certain settings can be changed. As the BIACORE C was originally developed to measure concentrations, there is no wizard designed to carry out affinity measurements. […] With this wizard, two flow cells were measured and the dissociation phase was set to 90 s by performing the “Regeneration 1” with BIACORE running buffer. […] The dissociation equilibrium constants were determined by calculating the rate constants ka and kd. Afterwards, the KD-values of the analytes were calculated by the quotient of kd and ka with the BIAevaluation software.
# [4] = molecular target: T2, Soluble CD138 antigen from U-266 cell …; assay: SPR (BIACORE C), mean of three independent experiments, biotinylated soluble CD138 on streptavidin chip
# Protocol: as §1, §2
Binder,EC50 (read off the curve) [2] [nM],further results
"nBT062-SPDB-DM4 (antibody, human IgG4, kappa, V domains shown, maytansinoid DM4 attached via SPDB (disulfide) linker; attachment residues and chain not stated) VH: QVQLQQSGSELMMPGASVKISCKATGYTFSNYWIEWVKQRPGHGLEWIGEILPGTGRTIYNEKFKGKATFTADISSNTVQMQLSSLTSEDSAVYYCARRDYYGNFYYAMDYWGQGTSVTVSS VL: DIQMTQSTSSLSASLGDRVTISCSASQGINNYLNWYQQKPDGTVELLIYYTSTLQSGVPSRFSGSGSGTDYSLTISNLEPEDIGTYYCQQYSKLPRTFGGGTKLEIKR",,"IC50 (read off the curve); surviving fraction of MOLP-8 cells (WST viability assay, 5 days), curve 'w/o blocking' [1]: ~0.08 nM"
"nBT062-SMCC-DM1 (antibody, human IgG4, kappa, V domains shown, maytansinoid DM1 attached via SMCC (non-cleavable) linker; attachment residues and chain not stated; average of 3.5 DM1 per antibody stated for nBT062-DM1) VH: QVQLQQSGSELMMPGASVKISCKATGYTFSNYWIEWVKQRPGHGLEWIGEILPGTGRTIYNEKFKGKATFTADISSNTVQMQLSSLTSEDSAVYYCARRDYYGNFYYAMDYWGQGTSVTVSS VL: DIQMTQSTSSLSASLGDRVTISCSASQGINNYLNWYQQKPDGTVELLIYYTSTLQSGVPSRFSGSGSGTDYSLTISNLEPEDIGTYYCQQYSKLPRTFGGGTKLEIKR",~1,
"nBT062-SPP-DM1 (antibody, human IgG4, kappa, V domains shown, maytansinoid DM1 attached via SPP (disulfide) linker; attachment residues and chain not stated; average of 3.5 DM1 per antibody stated for nBT062-DM1) VH: QVQLQQSGSELMMPGASVKISCKATGYTFSNYWIEWVKQRPGHGLEWIGEILPGTGRTIYNEKFKGKATFTADISSNTVQMQLSSLTSEDSAVYYCARRDYYGNFYYAMDYWGQGTSVTVSS VL: DIQMTQSTSSLSASLGDRVTISCSASQGINNYLNWYQQKPDGTVELLIYYTSTLQSGVPSRFSGSGSGTDYSLTISNLEPEDIGTYYCQQYSKLPRTFGGGTKLEIKR",~1,
"B-B4-SPP-DM1 (antibody, V domains shown, maytansinoid DM1 attached via SPP (disulfide) linker; attachment residues and chain not stated, the variable domain limits are inferred as for B-B4) VH: QVQLQQSGSELMMPGASVKISCKATGYTFSNYWIEWVKQRPGHGLEWIGEILPGTGRTIYNEKFKGKATFTADISSNTVQMQLSSLTSEDSAVYYCARRDYYGNFYYAMDYWGQGTSVTVSS VL: DIQMTQSTSSLSASLGDRVTISCSASQGINNYLNWYQQKPDGTVELLIYYTSTLQSGVPSRFSGSGSGTDYSLTISNLEPEDIGTYYCQQYSKLPRTFGGGTKLEIK",,Kd [3]: 2.6 nM and 2.7 nM; Kd [4]: 2.6 nM
"nBT062 (antibody, human IgG4, kappa, V domains shown, also called cB-B4; chimeric B-B4) VH: QVQLQQSGSELMMPGASVKISCKATGYTFSNYWIEWVKQRPGHGLEWIGEILPGTGRTIYNEKFKGKATFTADISSNTVQMQLSSLTSEDSAVYYCARRDYYGNFYYAMDYWGQGTSVTVSS VL: DIQMTQSTSSLSASLGDRVTISCSASQGINNYLNWYQQKPDGTVELLIYYTSTLQSGVPSRFSGSGSGTDYSLTISNLEPEDIGTYYCQQYSKLPRTFGGGTKLEIKR",~1,

# — patent US20090169570A1 (BIOTEST, published 2009)
